Data on two substances can be found in article PMC3576117.

In this assay the target is biotinylated, tyrosine-phosphorylated CLEC-2 alanine substitution mutant peptide (2–5 Ala). The assay can be described thus: SPR. For orientation: SPR reads the build-up and loss of mass on a sensor chip optically.

As to “GST-tagged recombinant Syk C-terminal SH2 domain (domain or fragment)”, the fold decrease in affinity against the wild type peptide came out at 4 fold.

As to “GST-tagged recombinant Syk tandem SH2 domains (both SH2 domains with the linker region) (domain or fragment)”, the fold decrease in affinity against the wild type peptide was 3 fold.
